B1: FhbB3SP64E45A/D58A (receptor)
chain: FKMNTAQKAHYEAFIADLERAAKDNPMPAHIVKAGLDAANAIAATLNFKIVDKKAGTEIAKGTKAAELRKRFVPKKK
notes: also called FhbBSP64E45A/D58A; FhbB3SP64 mutant; not shown: N-terminal hexa-histidine tag from vector pET46-Ek LIC
B2: FhbB-ch5 pentavalent chimeric (FhbB135405-FhbB2SP50-FhbB333521-FhbB335404-FhbB3SP64, mutated) (other)
chain: TFKMNTAQKAHYEKFINALENALKTRHIPAGAVIDMLAEINTEALALDYQIVDKKPGTSIAQGTKAAALRKRFIPKKIKAFKMNTAQKAHYEAFIKVLEKAAERNPIDAQVVVEALGAVNIDALAKNLNYQVIDKKPGTDIATGTKAAELRKRFVPKKIKAFKMNTAQKAHYEAFISGLENAVKDNPMTAQNVKEGLDLANVGAAALNFKIVDKKAGTEIAKGTKAAELRKRFVPKKKAFKMNTAQNAHYEAFISGLERGAKDNPMLAQVVKAGLDLANDGAAALNYKIVDKKPGTDIAKGTKAAELRKRFIPKKIKTFKMNTAQKAHYEAFIADLERAAKDNPMPAHIVKAGLDAANAIAATLNFKIVDKKAGTEIAKGTKAAELRKRFVPKKK
notes: purified on nickel; not shown: N-terminal hexa-histidine tag from vector pET46-Ek LIC
B3: FhbB1 of strain 35405, E45A site-directed mutant (receptor)
chain: TFKMNTAQKAHYEKFINALENALKTRHIPAGAVIDMLAEINTEALALDYQIVDKKPGTSIAQGTKAAALRKRFIPKKIKA
notes: also called FhbB135405 mutant; not shown: N-terminal hexa-histidine tag from vector pET46-Ek LIC
B4: FhbB2 of strain SP50, E45A or D58A site-directed mutant (receptor)
chain: FKMNTAQKAHYEAFIKVLEKAAERNPIDAQVVVEALGAVNIDALAKNLNYQVIDKKPGTDIATGTKAAELRKRFVPKKIKA
notes: also called FhbB2SP50 mutant; not shown: N-terminal hexa-histidine tag from vector pET46-Ek LIC
B5: FhbB3 of strain 33521, E45A or D58A site-directed mutant (receptor)
chain: FKMNTAQKAHYEAFISGLENAVKDNPMTAQNVKEGLDLANVGAAALNFKIVDKKAGTEIAKGTKAAELRKRFVPKKKA
notes: also called FhbB333521 mutant; not shown: N-terminal hexa-histidine tag from vector pET46-Ek LIC
B6: FhbB3 of strain 35404, E45A or D58A site-directed mutant (receptor)
chain: FKMNTAQNAHYEAFISGLERGAKDNPMLAQVVKAGLDLANDGAAALNYKIVDKKPGTDIAKGTKAAELRKRFIPKKIKT
notes: also called FhbB335404 mutant; not shown: N-terminal hexa-histidine tag from vector pET46-Ek LIC
B7: FhbB-ch4 tetravalent chimeric (FhbB135405-FhbB2SP50-FhbB333521-FhbB335404, mutated) (other)
chain: TFKMNTAQKAHYEKFINALENALKTRHIPAGAVIDMLAEINTEALALDYQIVDKKPGTSIAQGTKAAALRKRFIPKKIKAFKMNTAQKAHYEAFIKVLEKAAERNPIDAQVVVEALGAVNIDALAKNLNYQVIDKKPGTDIATGTKAAELRKRFVPKKIKAFKMNTAQKAHYEAFISGLENAVKDNPMTAQNVKEGLDLANVGAAALNFKIVDKKAGTEIAKGTKAAELRKRFVPKKKAFKMNTAQNAHYEAFISGLERGAKDNPMLAQVVKAGLDLANDGAAALNYKIVDKKPGTDIAKGTKAAELRKRFIPKKIK
notes: purified on nickel; also called Fhb-ch4; not shown: N-terminal hexa-histidine tag from vector pET46-Ek LIC

Each binder was assayed against T1, human Factor H (human, UniProt P08603 19-1231) (assay: ELISA, immobilized recombinant protein, human FH 10 ug/mL).
T1 construct: Purified human FH bought from CompTech; added in solution at 10 ug/mL in the ELISA and 40 ug/mL in the cleavage assay; also called FH; human FH
T1 sequence (P08603 19-1231 limits assumed): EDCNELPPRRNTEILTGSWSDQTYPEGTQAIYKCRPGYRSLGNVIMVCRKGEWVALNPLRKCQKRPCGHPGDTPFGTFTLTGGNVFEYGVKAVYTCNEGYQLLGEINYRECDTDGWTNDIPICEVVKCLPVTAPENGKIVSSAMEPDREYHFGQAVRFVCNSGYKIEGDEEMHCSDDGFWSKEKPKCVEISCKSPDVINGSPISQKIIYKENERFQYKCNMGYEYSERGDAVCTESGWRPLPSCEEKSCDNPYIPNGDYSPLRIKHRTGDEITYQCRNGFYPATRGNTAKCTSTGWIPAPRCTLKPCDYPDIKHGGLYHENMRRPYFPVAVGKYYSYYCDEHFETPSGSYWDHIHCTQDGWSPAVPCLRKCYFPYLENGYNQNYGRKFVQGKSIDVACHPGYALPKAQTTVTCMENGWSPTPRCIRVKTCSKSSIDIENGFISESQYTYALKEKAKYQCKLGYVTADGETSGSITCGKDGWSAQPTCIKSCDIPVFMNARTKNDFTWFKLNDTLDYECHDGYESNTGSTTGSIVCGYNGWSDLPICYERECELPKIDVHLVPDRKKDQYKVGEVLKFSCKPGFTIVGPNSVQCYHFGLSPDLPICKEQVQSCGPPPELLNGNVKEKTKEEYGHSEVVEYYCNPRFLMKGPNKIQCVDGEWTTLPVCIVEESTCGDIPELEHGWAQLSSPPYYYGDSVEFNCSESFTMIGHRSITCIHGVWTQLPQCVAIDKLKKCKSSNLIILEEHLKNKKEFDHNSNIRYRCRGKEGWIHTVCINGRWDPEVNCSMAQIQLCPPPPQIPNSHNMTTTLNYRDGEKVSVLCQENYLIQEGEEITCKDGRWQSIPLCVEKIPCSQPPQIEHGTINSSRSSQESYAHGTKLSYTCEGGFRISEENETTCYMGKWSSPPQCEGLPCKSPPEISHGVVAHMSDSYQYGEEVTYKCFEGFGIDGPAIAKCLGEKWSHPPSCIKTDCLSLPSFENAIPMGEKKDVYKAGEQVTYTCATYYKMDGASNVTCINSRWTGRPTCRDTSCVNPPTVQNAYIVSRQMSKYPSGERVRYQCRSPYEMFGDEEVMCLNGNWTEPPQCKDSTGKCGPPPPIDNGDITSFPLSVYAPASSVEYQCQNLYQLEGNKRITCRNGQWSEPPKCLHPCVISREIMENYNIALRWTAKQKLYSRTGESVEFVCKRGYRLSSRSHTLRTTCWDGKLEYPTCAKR
B1: binds. B2: binds.

What follows are binders tested against T1, human Factor H (assay: ELISA, immobilized recombinant protein, FH in solution).
B3: no binding (tested: 10 µg mL^-1 human FH). B4: no binding (tested: 10 µg mL^-1 human FH). B5: no binding (tested: 10 µg mL^-1 human FH). B6: no binding (tested: 10 µg mL^-1 human FH). B7: no binding (tested: 10 µg mL^-1 human FH).

From patent US20230355734A1 (VIRGINIA COMMONWEALTH UNIVERSITY, published 2023)
